In article PMC6376064:

Biological target: Nrf2 (UniProt Q60795)
Assay: anti-Flag (Nrf2) co-IP, immunoblot
Details: reference: Keap1 wild type; sites T51,S53,T55,T80

binding against the reference: stronger
Substance: Keap1 (from UniProt Q9Z2X8) Keap1 4A
